Where a chain is given by its changes, count along the chain named. Names and notes keep the numbering of the source. Values belong to the binder of their own block, whether it stands above or below them.
Assays:
[1] = biological target: T1, dog CD47 (dog); assay: flow cytometry on dog RBCs, apparent affinity by non-linear fit of median fluorescence
T1 construct: whole, on cells; also called CD47 on dog RBCs

[2] = biological target: T2, human CD47 (human, UniProt Q08722 19-292); assay: flow cytometry on human RBCs, apparent affinity by non-linear fit of median fluorescence
T2 construct: On human RBCs, on OV10 cells transfected with human CD47 (OV10-hCD47) and on Jurkat T cells; also called hCD47; integrin-associated protein (IAP)
T2 sequence (Q08722 other isoform, or with tags, fused parts or gaps limits assumed): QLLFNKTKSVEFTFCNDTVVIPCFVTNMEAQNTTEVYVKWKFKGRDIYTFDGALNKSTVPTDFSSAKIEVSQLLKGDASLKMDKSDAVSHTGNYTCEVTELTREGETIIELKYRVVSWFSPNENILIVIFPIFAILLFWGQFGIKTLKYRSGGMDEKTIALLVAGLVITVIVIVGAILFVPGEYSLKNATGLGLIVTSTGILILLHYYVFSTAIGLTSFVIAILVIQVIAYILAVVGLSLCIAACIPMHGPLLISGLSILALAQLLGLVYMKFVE
Method: (§1) Binding activities of murine mAbs to mouse CD47 on murine RBCs (mRBCs) and human CD47 on human RBCs (hRBCs) were determined using flow cytometry. RBCs were incubated for 60 min on at 37° C. with various concentrations of the chimeric or humanized antibodies in a solution of phosphate buffered saline, pH 7.2, 2.5 mM EDT A (PBS+E). Cells were then washed with cold PBS+E and incubated for an additional hour on ice with a FITC labeled goat-anti-mouse antibody (Jackson Immuno Research Labs, West Grove, Pa.) in PBS +E. Cells were washed with PBS+E, antibody binding analyzed using a C6 Accuri How Cytometer (Becton Dickinson) and apparent binding affinities determined by non-linear fit (Prism GraphPad software) of the median fluorescence intensities at the various antibody concentrations.

[3] = biological target: T3, pig CD47 (pig, UniProt Q9GKE8 19-303); assay: flow cytometry on pig RBCs, apparent affinity by non-linear fit of median fluorescence
T3 construct: whole, on cells; also called CD47 on pig RBCs
T3 sequence (looked up): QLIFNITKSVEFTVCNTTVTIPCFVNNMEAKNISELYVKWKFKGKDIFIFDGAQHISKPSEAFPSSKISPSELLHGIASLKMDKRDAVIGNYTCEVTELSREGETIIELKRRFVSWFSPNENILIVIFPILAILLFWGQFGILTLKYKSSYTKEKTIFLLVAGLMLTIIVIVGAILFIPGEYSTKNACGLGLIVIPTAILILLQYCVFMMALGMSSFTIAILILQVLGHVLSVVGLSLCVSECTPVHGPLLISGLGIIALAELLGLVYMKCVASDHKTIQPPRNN

[4] = biological target: T4, rat CD47 (rat, UniProt P97829 19-303); assay: flow cytometry on rat RBCs, apparent affinity by non-linear fit of median fluorescence
T4 construct: whole, on cells; also called CD47 on rat RBCs
T4 sequence (looked up): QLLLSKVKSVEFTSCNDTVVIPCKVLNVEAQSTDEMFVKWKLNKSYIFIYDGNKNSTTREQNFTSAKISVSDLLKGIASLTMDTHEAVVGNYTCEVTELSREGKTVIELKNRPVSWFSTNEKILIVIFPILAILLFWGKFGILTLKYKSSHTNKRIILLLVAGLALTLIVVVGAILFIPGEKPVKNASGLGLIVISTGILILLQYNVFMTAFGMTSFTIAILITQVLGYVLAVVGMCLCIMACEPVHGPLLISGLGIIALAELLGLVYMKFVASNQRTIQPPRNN

[5] = biological target: T5, mouse CD47 (mouse, UniProt Q61735 19-303); assay: flow cytometry on mouse RBCs, apparent affinity by non-linear fit of median fluorescence
T5 construct: whole, on cells; also called CD47 on murine RBCs (mRBCs)
T5 sequence (looked up): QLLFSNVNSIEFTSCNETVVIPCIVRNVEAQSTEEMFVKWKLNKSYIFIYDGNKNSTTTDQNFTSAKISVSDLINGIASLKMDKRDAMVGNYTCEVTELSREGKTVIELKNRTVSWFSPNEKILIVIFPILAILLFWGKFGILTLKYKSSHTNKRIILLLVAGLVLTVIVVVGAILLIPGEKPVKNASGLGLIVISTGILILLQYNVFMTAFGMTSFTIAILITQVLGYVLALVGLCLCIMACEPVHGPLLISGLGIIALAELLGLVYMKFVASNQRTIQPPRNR
Method: as §1

[6] = biological target: T2, human CD47; assay: flow cytometry on human RBCs and cell-based ELISA on OV10-hCD47 cells
Method: as §1, with “humanized” for “murine”, “to” for “to mouse CD47 on murine RBCs (mRBCs) and”, “RBCs” for “RBCs (hRBCs)”, “donkey-anti-human” for “goat-anti-mouse”, “PBS+E.” for “PBS +E.”, “Flow” for “How”
Binding activities of humanized mAbs were determined using a cell-based ELISA assay with human OVIO-hCD47 cells expressing cell surface human CD47. OVIO hCD47 cells were grown in IMDM medium containing 10% heat inactivated fetal bovine serum (BioWest; S01520). […] Reactions were terminated by the addition of HCl to 0.7N, and absorbance at 450 nm is determined using a Tecan model Infinite M200 plate reader. The apparent binding affinities of these clones to human OVIO-hCD47 cells was determined by non-linear fit (Prism GraphPad software).

[7] = biological target: T2, human CD47; assay: flow cytometry on human RBCs, apparent affinity
Method: as §1, with “humanized” for “murine”, “to” for “to mouse CD47 on murine RBCs (mRBCs) and”, “RBCs” for “RBCs (hRBCs)”, “donkey-anti-human” for “goat-anti-mouse”, “PBS+E.” for “PBS +E.”, “Flow” for “How”

[8] = biological target: T2, human CD47; assay: cell-based ELISA on OV10-hCD47 tumor cells, apparent affinity
Method: Binding activities of humanized mAbs were determined using a cell-based ELISA assay with human OVIO-hCD47 cells expressing cell surface human CD47. OVIO hCD47 cells were grown in IMDM medium containing 10% heat inactivated fetal bovine serum (BioWest; S01520). One day before assay, 3×10⁴ cells were plated in 96 well cell bind plates (Corning #3300, VWR #66025-626) and were 95-100% confluent at the time of assay. Cells were washed, and various concentrations of purified antibodies added in IMDM 37° C. for 1 hr in 95%02 I 5% CO₂. Cells were then washed with media and incubated for an additional hour at 37° C. with HRP labeled secondary anti-human antibody (Promega) diluted 1/2500 in media. Cells were washed three times with PBS, and the peroxidase substrate 3,3′, 5,5′-tetramethylbenzidine is added (Sigma; Catalog #T4444). Reactions were terminated by the addition of HCl to 0.7N, and absorbance at 450 nm is determined using a Tecan model Infinite M200 plate reader. The apparent binding affinities of these clones to human OVIO-hCD47 cells was determined by non-linear fit (Prism GraphPad software).

Kd [1]: 0.714 nM
Kd [2]: 0.459 nM
Kd [3]: 0.123 nM
Kd [4]: 0.179 nM
Kd [5]: 0.031 nM
B1: Vx10 (antibody, V domains shown)
VH: QVQLQQSGAELAKPGASVKMSCKASGYTFTNYWIHWIKQRPGQGLEWIGYIDPNTVYTDYNQRFEDKATLTADKSSNTAYMQLNSLTSEDSAVYYCSRGGKRGVDSWGQGTSVTVSS
VL: DVVMTQTPLSLPVSLGDQASISCRSSQSLENSNGDTYLNWYLQKPGQSPQLLIYRVSNRFSGVLDRFSGSGSGTDFTLQISRVEAEDLGVYFCLQVSHVPWTFGGGTNLEIK
notes: Murine mAb; also called murine anti-CD47 mAb Vx10

Kd [1]: < 0.013 nM
Kd [2]: 0.091 nM
Kd [4]: 0.231 nM
Kd [5]: 0.246 nM
B2: Vx11 (antibody, V domains shown)
VH: EVQLQQSGAQLVKPGTSMKLSCKASGYTFTNYFLYWVKQRPGQGLEWIGDINPNAGSTNLNERFKSKATLTVDKSSSTAYLQLSGLTSEDSAVYYCTRGGYTMDYWGQGTSVTVSS
VL: B1 VL
notes: Murine mAb; also called murine anti-CD47 mAb Vx11

Kd [1]: 0.101 nM
Kd [2]: 0.384 nM
Kd [3]: 0.06 nM
Kd [5]: < 0.013 nM
B3: Vx12 (antibody, V domains shown)
VH: B2 VH with E1Q, Q5L
VL: DVVMTQIPLSLPVSLGDQASISCRSSQSLVHSNGNTYLHWYLQKPGQSPKLLIYKVSNRFSGVPDRFSGSGSGTDFTLKISRVEAEDLGVYFCSQSTHVPRTFGGGTKLEIK
notes: Murine mAb; also called murine anti-CD47 mAb Vx12

binding result [6]: binds
B4: humVx10_01_IgG4PE (antibody, V domains shown)
VH: QVQLVQSGAEVKKPGASVQVSCKASGYTFTNYWIHWLRQAPGQGLEWMGYIDPNTVYTDYNQRFEDRVTMTSDTSISTAYMELSSLRSDDTAVYYCARGGKRGVDSWGQATLVTVSS
VL: DIVMTQSPLSLPVTPGEPASISCRSSQSLENSNGDTYLNWYLQKPGQSPRLLIYRVSNRFSGVPDRFSGSGSGTDFTLKISRVEADDVGIYYCLQVSHVPWTFGQGTKLEIKR
notes: Humanized full length IgG4 PE, human kappa

Kd [1]: 1.62 nM
Kd [2]: 0.874 nM
Kd [3]: 0.102 nM
B5: Vx13 (antibody, V domains shown)
VH: EVQLQQSGPEVVKPGASVRISCKASDYTFTNYYIHWVRQRPGQGLEWIGWIYPGNNNNKYNEKFKGKATLTEDTSSSTAYMQLSSLTSEDSAVYFCARGGYTMDYWGQG
VL: DVLMTQTPLSLPVSLGDQASISCRSSQSLVHSNGNTYLHWYLQKPGQSPNLLIYKVSNRFSGVPDRFSGSGSGTDFTLKINRVETEDLGIYFCSQSTHVLTFGAG
notes: Murine mAb; also called murine anti-CD47 mAb Vx13

Kd [7]: 0.04 nM
Kd [8]: 0.087 nM
B6: Vx10_mh_IgG1N297Q (antibody)
heavy: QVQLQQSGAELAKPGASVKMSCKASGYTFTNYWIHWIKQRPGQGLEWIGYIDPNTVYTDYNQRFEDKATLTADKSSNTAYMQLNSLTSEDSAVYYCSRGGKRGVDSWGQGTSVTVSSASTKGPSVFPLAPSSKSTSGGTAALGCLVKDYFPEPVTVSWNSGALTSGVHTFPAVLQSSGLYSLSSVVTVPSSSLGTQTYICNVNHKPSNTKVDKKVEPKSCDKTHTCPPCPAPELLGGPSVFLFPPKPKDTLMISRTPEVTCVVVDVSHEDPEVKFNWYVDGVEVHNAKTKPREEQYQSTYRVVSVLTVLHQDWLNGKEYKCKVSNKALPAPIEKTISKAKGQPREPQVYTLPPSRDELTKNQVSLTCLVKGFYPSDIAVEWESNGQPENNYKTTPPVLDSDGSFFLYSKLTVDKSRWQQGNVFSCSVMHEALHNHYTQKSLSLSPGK
light: DVVMTQTPLSLPVSLGDQASISCRSSQSLENSNGDTYLNWYLQKPGQSPQLLIYRVSNRFSGVLDRFSGSGSGTDFTLQISRVEAEDLGVYFCLQVSHVPWTFGGGTNLEIKRTVAAPSVFIFPPSDEQLKSGTASVVCLLNNFYPREAKVQWKVDNALQSGNSQESVTEQDSKDSTYSLSSTLTLSKADYEKHKVYACEVTHQGLSSPVTKSFNRGEC
notes: Mouse-human chimeric full length IgG, human IgG1-N297Q and human kappa, made in CHO cells; also called chimeric Vx10 IgG1 N297Q

Kd [7]: 0.048 nM
Kd [8]: 0.091 nM
B7: Vx10_mh_IgG4PE (antibody)
heavy: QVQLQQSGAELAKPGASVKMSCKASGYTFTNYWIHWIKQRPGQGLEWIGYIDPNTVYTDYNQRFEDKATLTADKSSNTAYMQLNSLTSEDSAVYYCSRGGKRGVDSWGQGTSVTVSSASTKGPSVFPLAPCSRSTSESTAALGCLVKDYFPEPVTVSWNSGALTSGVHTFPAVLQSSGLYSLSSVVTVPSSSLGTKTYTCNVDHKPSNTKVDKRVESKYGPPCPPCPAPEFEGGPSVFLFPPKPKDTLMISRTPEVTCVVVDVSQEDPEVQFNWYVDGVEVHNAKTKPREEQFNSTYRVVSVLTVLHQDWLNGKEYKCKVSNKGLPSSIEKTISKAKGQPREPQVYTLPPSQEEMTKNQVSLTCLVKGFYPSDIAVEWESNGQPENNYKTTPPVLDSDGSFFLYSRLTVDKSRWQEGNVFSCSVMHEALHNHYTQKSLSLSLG
light: B6 light
notes: Mouse-human chimeric full length IgG, human IgG4 PE and human kappa, made in CHO cells; also called chimeric Vx10 IgG4PE

Kd [7]: 0.09 nM
Kd [8]: 0.069 nM
B8: Vx12_mh_IgG1N297Q (antibody)
heavy: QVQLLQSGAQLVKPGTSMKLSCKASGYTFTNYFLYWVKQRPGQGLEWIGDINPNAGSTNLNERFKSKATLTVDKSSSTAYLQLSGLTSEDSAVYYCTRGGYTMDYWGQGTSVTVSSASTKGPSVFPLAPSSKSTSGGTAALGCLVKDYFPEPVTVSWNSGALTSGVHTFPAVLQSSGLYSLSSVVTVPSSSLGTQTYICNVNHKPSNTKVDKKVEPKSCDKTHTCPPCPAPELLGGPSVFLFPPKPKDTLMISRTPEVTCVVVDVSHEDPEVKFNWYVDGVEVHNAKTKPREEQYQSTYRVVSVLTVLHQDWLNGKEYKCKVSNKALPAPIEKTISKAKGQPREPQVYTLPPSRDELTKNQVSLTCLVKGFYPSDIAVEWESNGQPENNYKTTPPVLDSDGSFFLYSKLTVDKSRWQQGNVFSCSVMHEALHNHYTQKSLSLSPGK
light: DVVMTQIPLSLPVSLGDQASISCRSSQSLVHSNGNTYLHWYLQKPGQSPKLLIYKVSNRFSGVPDRFSGSGSGTDFTLKISRVEAEDLGVYFCSQSTHVPRTFGGGTKLEIKRTVAAPSVFIFPPSDEQLKSGTASVVCLLNNFYPREAKVQWKVDNALQSGNSQESVTEQDSKDSTYSLSSTLTLSKADYEKHKVYACEVTHQGLSSPVTKSFNRGEC
notes: Mouse-human chimeric full length IgG, human IgG1-N297Q and human kappa, made in CHO cells; also called chimeric Vx12 IgG1 N297Q

Kd [7]: 0.12 nM
Kd [8]: 0.07 nM
B9: Vx12_mh_IgG4PE (antibody)
heavy: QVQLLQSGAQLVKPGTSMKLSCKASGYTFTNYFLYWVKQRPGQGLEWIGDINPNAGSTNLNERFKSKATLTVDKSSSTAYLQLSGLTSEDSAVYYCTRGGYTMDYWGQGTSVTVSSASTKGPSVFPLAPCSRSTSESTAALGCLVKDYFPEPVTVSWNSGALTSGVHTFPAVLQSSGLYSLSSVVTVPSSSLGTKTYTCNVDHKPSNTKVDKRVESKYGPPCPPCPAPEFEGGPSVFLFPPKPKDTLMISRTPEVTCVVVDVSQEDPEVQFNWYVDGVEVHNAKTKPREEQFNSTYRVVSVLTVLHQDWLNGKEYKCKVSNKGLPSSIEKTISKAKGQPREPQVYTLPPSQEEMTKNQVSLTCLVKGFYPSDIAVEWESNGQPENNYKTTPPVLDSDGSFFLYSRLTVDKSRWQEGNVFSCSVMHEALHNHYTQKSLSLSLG
light: B8 light
notes: Mouse-human chimeric full length IgG, human IgG4 PE and human kappa, made in CHO cells; also called chimeric Vx12 IgG4PE

— patent US20210324075A1 (ARCH ONCOLOGY, published 2021)
